Assay results as given in patent publication CN1997751A (AGENSYS INC, dated 2007).

T1: PSCA (prostate stem cell antigen), human, PSCA v.1 (human, UniProt O43653 12-83)
T1 construct: whole, on cells; also called PSCA变体1; 人PSCA
T1 sequence (looked up): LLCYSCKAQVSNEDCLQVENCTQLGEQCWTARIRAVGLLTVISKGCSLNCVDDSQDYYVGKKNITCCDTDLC

B1: Ha1-5.99 (antibody, IgG2, V domains shown)
VH: QVHLQQWGAGLLKPSETLSLTCAVYGGSFSGYYWSWIRQPPGKGLEWIGEINHSGSTSYKPSLKSRVTVSVDTSKNQFSLKLSYVTAADTAVYYCARDRGDYGDFLFDYWGQGTLVTVSS
VL: SPGERATLSCRASQSIGSTYLAWYQQKPGQAPRLLIYGASSRATGIPERFSGSGSGTDFTLTISGLEPEDFAVFYCQQCGSSPPTFGQGTKVEIKR
notes: ATCC PTA-6703; also called Ha1-5.99.1; HA1-5.99.1
B2: Ha1-4.37 (antibody, V domains shown)
VH: PGALQESGPGLVRPSQTLSLTCTVSGGSISSGGTYYWIWIRQHPGKGLEWIGYIYYSGSTYYNPSLKSRVTISVDTSKNQFSLKLSSVTAADTAVYYCARDGITMVRGISGGMDVWGQGTTVTVSS
VL: ASVGDRVTITCRASQSISSHLNWYQQKPGKAPKLLIYAASSLQSGVPSRFSGSGSGTDFTLSISSLQPEDFATYFCQQSYSIPRTFGQGTKVEITR
notes: ATCC PTA-6702
B3: Ha1-1.16 (antibody, V domains shown)
VH: QVQLQQSGPGLVKPSQTLSLTCAISGDSVSSNSAAWNWIRQSPSRGLEWLGRTYYRSKWYNGYAVSVKSRMTINPDTSKNQFSLQLNSVTPEDTAVYYCARERLGELYGMDVWGQGTTVTVSS
VL: QLTQSPDSLAVSLGERATINCKSSQNILYRSSKKNHLVWYQQKPGQPPKLLIYWASTRESGVPARFSGSGSGTDFTLTISTLQAEDVAVYYCQQYYSTPPTFGQGTRLEIKR
notes: ATCC PTA-6698; also called Ha1-1.16.1
B4: Ha1-4.117 (antibody, V domains shown)
VH: QVQLQESGPGLVKPSQTLSLTCTVSGGSISSGGYYWIWIRQHPGKGLEWIGYIYYNGNTYYNPSLKSRVTMSVDTSKNQFSLKLSSVTAADTAVYYCARDGITMIRGYYYGMDVWGQGTTVTVSS
VL: QLTQSPSSVSASVGDRVTITCRASRGISSWLAWYQQKPGKAPKLLIYTASSLQSGVPSRFSGSGSGTDFTLTISSLQPEDFATYYCQQAYSFPRTFGQGTKVEIKR

What follows are binders tested against T1, PSCA (prostate stem cell antigen), … (assay: FACS titration on SW780 cells, sigmoidal dose-response fit (Graphpad Prism)).

With B1 as the binder, how does the Kd read?
The Kd was 280 pM.

How did the Kd turn out when B2 was run?
Its Kd is 230 pM.

With B3 as the binder, how does the Kd read?
Its Kd is 6910 pM.

Which Kd does the source give for B4 here?
The Kd was 320 pM.
